Laboratory results from patent US20170165366A1.

Biological target: mouse TIGIT-His (SEQ ID NO: 3) (mouse) (UniProt P86176)
Assay: BLI (Octet QKe), SEC1 on AMC sensor, mouse TIGIT-His 33 to 1.22 nM, 1:1 global fit

Sequence of mouse TIGIT-His (SEQ ID NO: 3) (mouse) (P86176 other isoform, or with tags, fused parts or gaps limits assumed, form in doubt): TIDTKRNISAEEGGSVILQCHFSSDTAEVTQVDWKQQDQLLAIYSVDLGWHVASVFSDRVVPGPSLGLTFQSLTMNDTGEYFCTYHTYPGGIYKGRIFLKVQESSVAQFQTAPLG

B1: SEC1 mouse IgG2a N297A (antibody, V domains shown)
VH: EVQLVESGGGLTQPGKSLKLSCEASGFTFSSFTMHWVRQSPGKGLEWVAFIRSGSGIVFYADAVRGRFTISRDNAKNLLFLQMNDLKSEDTAMYYCARRPLGHNTFDSWGQGTLVTVSS
VL: DIVMTQSPSSLAVSPGEKVTMTCKSSQSLYYSGVKENLLAWYQQKPGQSPKLLIYYASIRFTGVPDRFTGSGSGTDYTLTITSVQAEDMGQYFCQQGINNPLTFGDGTKLEIKR
  Kd: 0.32 nM
  koff: 0.0006 s⁻¹
  kon: 1.9e+06 M⁻¹ s⁻¹
